According to publication PMC8830441, “Interaction of TLK1 and AKTIP as a Potential Regulator of AKT Activation in Castration-Resistant Prostate Cancer Progression” (Pathophysiology, 2021):

Biological target: T1, Full-length, wild-type recombinant His-tagged TLK1B (human, UniProt Q9UKI8-3 1-549)
T1 construct: wild-type, full-length TLK1B; also called His-TLK1B; recombinant TLK1; source: bacterial expression plasmid, recombinant, purified according to the published literature
T1 sequence (looked up): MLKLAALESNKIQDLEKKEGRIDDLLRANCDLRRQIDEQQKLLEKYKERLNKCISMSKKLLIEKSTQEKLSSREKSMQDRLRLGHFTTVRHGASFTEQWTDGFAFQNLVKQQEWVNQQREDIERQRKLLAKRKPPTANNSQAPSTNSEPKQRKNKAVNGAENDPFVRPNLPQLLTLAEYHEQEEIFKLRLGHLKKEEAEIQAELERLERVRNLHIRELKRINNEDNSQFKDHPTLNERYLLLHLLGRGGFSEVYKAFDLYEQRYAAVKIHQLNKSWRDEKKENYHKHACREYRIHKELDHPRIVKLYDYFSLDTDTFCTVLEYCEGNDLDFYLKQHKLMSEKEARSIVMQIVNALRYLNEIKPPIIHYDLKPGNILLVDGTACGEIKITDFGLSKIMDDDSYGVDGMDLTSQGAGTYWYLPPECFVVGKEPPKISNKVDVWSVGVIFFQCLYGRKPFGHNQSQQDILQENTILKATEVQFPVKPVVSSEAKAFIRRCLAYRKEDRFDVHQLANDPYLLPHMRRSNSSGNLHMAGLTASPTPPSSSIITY
Assay: pull-down; His-TLK1B and GST-AKTIP, 1 µg of each, incubated on ice 30 min, isolated on Ni-NTA agarose beads, washed with cell lysis buffer, WB for AKTIP
Details: both partners purified

- binding result: binds
B1: wild-type full-length human GST-AKTIP (natural protein, UniProt Q9H8T0 1-292, looked up)
chain: MNPFWSMSTSSVRKRSEGEEKTLTGDVKTSPPRTAPKKQLPSIPKNALPITKPTSPAPAAQSTNGTHASYGPFYLEYSLLAEFTLVVKQKLPGVYVQPSYRSALMWFGVIFIRHGLYQDGVFKFTVYIPDNYPDGDCPRLVFDIPVFHPLVDPTSGELDVKRAFAKWRRNHNHIWQVLMYARRVFYKIDTASPLNPEAAVLYEKDIQLFKSKVVDSVKVCTARLFDQPKIEDPYAISFSPWNPSVHDEAREKMLTQKKPEEQHNKSVHVAGLSWVKPGSVQPFSKEEKTVAT
notes: also called GST-tagged AKTIP; source: bacterial expression plasmid, recombinant, purified from bacteria according to the published literature
